Experimental data: the supplement of paper PMC10567573

B1: SMG5 (parent)
chain: TRKLSPGKKRCKDIKRLLVNFMYL

Variants of: B1
Experiment: protein stability index of a GFP-peptide fusion (GPS, HEK-293T) (PSI 1-6); higher = more stable
Conditions: c terminus: a fixed tail appended
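Further: lentivirally expressed fusions sorted by FACS into six bins by GFP to DsRed ratio, PSI derived from sequencing read proportions per bin multiplied by bin number.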

Variant	protein stability index
TRKLSPGKKRCKDINRLLVNFMYL [K15N]	3.35
TRKLSPGKKRCKDITRLLVNFMYL [K15T]	3.37
TRKLSPGKKRCKDIQRLLVNFMYL [K15Q]	1.64
TRKLSPGKKRCKDIWRLLVNFMYL [K15W]	2.09
TRKLSPGKKRCKDIDRLLVNFMYL [K15D]	1.3
TRKLSPGKKRCKDIPRLLVNFMYL [K15P]	2.23
TRKLSPGKKRCKDIARLLVNFMYL [K15A]	3.83
TRKLSPGKKRCKDIVRLLVNFMYL [K15V]	4.58
TRKLSPGKKRCKDIERLLVNFMYL [K15E]	3.46
TRKLSPGKKRCKDIGRLLVNFMYL [K15G]	1.85
TRKLSPGKKRCKDILRLLVNFMYL [K15L]	2.08
TRKLSPGKKRCKDIMRLLVNFMYL [K15M]	2.66
TRKLSPGKKRCKDIKRLKVNFMYL [L18K]	1.54
TRKLSPGKKRCKDIKRLTVNFMYL [L18T]	1.65
TRKLSPGKKRCKDIKRLGVNFMYL [L18G]	2.35
TRKLSPGKKRCKDIKRLRVNFMYL [L18R]	1.68
TRKLSPGKKRCKDIKRLDVNFMYL [L18D]	1.76
TRKLSPGKKRCKDIKRLPVNFMYL [L18P]	2.48
TRKLSPGKKRCKDIKRLVVNFMYL [L18V]	2.52
TRKLSPGKKRCKDIKRLCVNFMYL [L18C]	1.52
TRKLSPGKKRCKDIKRLSVNFMYL [L18S]	1.88
TRKLSPGKKRCKDIKRLQVNFMYL [L18Q]	1.95
TRKLSPGKKRCKDIKRLYVNFMYL [L18Y]	2.5
TRKLSPGKKRCKDIKRLAVNFMYL [L18A]	1.41

Variant	protein stability index
TRKLSPGKKRCKDIKRLFVNFMYL [L18F]	2.21
TRKLSPGKKRCKDIKRLEVNFMYL [L18E]	2.16
TRKLSPGKKRCKDIKRLMVNFMYL [L18M]	3.27
TRKLSPGKKRCKDIKRLHVNFMYL [L18H]	1.6
TRKLSPGKKRCKDIKRLNVNFMYL [L18N]	1.55
TRKLSPGKKRCKDIKILLVNFMYL [R16I]	3.39
TRKLSPGKKRCKDIKALLVNFMYL [R16A]	2.73
TRKLSPGKKRCKDIKLLLVNFMYL [R16L]	1.66
TRKLSPGKKRCKDIKKLLVNFMYL [R16K]	2.01
TRKLSPGKKRCKDIKWLLVNFMYL [R16W]	3.81
TRKLSPGKKRCKDIKDLLVNFMYL [R16D]	1.6
TRKLSPGKKRCKDIKCLLVNFMYL [R16C]	2.27
TRKLSPGKKRCKDIKNLLVNFMYL [R16N]	2.58
TRKLSPGKKRCKDIKTLLVNFMYL [R16T]	2.9
TRKLSPGKKRCKDIKSLLVNFMYL [R16S]	1.36
TRKLSPGKKRCKDIKPLLVNFMYL [R16P]	2.24
TRKLSPGKKRCKDIKMLLVNFMYL [R16M]	4.38
TRKLSPGKKRCKDIKELLVNFMYL [R16E]	2.42
TRKLSPGKKRCKDIKGLLVNFMYL [R16G]	1.71
TRKLSPGKKRCKDIKQLLVNFMYL [R16Q]	1.27
TRKLSPGKKRCKDIKRLLVNFMYQ [L24Q]	2.04
TRKLSPGKKRCKDIKRLLVNFMYE [L24E]	1.96
TRKLSPGKKRCKDIKRLLVNFMYS [L24S]	1.98
TRKLSPGKKRCKDIKRLLVNFMYI [L24I]	4.07

Variant	protein stability index
TRKLSPGKKRCKDIKRLLVNFMYP [L24P]	2.63
TRKLSPGKKRCKDIKRLLVNFMYD [L24D]	1.2
TRKLSPGKKRCKDIKRLLVNFMYC [L24C]	1.39
TRKLSPGKKRCKDIKRLLVNFMYK [L24K]	2.46
TRKLSPGKKRCKDIKRLLVNFMYT [L24T]	2.02
TRKLSPGKKRCKDIKRLLVNFMYF [L24F]	2.53
TRKLSPGKKRCKDIKRLLVNFMYG [L24G]	2.92
TRKLSPGKKRCKDIKRLLVNFMYR [L24R]	2.39
TRKLSPGKKRCKDIKRLLVNFMYA [L24A]	2.34
TRKLSPGKKRCKDIKRLLVNFMYW [L24W]	1.9
TRKLSPGKKRCKDIKRLLVNFMYM [L24M]	3
TRKLSPGKKRCKDIKRLLVNFMYH [L24H]	1.55
TRKLSPGKKRCKDIKRLLVNKMYL [F21K]	2.12
TRKLSPGKKRCKDIKRLLVNNMYL [F21N]	1.97
TRKLSPGKKRCKDIKRLLVNTMYL [F21T]	1.99
TRKLSPGKKRCKDIKRLLVNHMYL [F21H]	1.49
TRKLSPGKKRCKDIKRLLVNAMYL [F21A]	1.76
TRKLSPGKKRCKDIKRLLVNEMYL [F21E]	1.75
TRKLSPGKKRCKDIKRLLVNDMYL [F21D]	2.37
TRKLSPGKKRCKDIKRLLVNWMYL [F21W]	1.91
TRKLSPGKKRCKDIKRLLVNSMYL [F21S]	2.88
TRKLSPGKKRCKDIKRLLVNPMYL [F21P]	1.6
TRKLSPGKKRCKDIKRLLVNIMYL [F21I]	3.19
TRKLSPGKKRCKDIKRLLVNGMYL [F21G]	1.63

Variant	protein stability index
TRKLSPGKKRCKDIKRLLVNRMYL [F21R]	1.88
TRKLSPGKKRCKDIKRLLVNQMYL [F21Q]	1.71
TRKLSPGKKRCKDIKRLLVNCMYL [F21C]	1.21
TRKLSPGKKRCKDIKRLLVNYMYL [F21Y]	1.76
TRKLSPGKKRCKDIKRLLYNFMYL [V19Y]	4.05
TRKLSPGKKRCKDIKRLLDNFMYL [V19D]	2.34
TRKLSPGKKRCKDIKRLLLNFMYL [V19L]	3.43
TRKLSPGKKRCKDIKRLLCNFMYL [V19C]	2.31
TRKLSPGKKRCKDIKRLLSNFMYL [V19S]	2.12
TRKLSPGKKRCKDIKRLLPNFMYL [V19P]	2.62
TRKLSPGKKRCKDIKRLLTNFMYL [V19T]	1.84
TRKLSPGKKRCKDIKRLLHNFMYL [V19H]	2.72
TRKLSPGKKRCKDIKRLLENFMYL [V19E]	1.68
TRKLSPGKKRCKDIKRLLNNFMYL [V19N]	2.21
TRKLSPGKKRCKDIKRLLQNFMYL [V19Q]	2.26
TRKLSPGKKRCKDIKRLLGNFMYL [V19G]	2.1
TRKLSPGKKRCKDIKRLLMNFMYL [V19M]	2.59
TRKLSPGKKRCKDIKRLLINFMYL [V19I]	1.66
TRKLSPGKKRCKIIKRLLVNFMYL [D13I]	3.25
TRKLSPGKKRCKCIKRLLVNFMYL [D13C]	1.84
TRKLSPGKKRCKRIKRLLVNFMYL [D13R]	1.71
TRKLSPGKKRCKKIKRLLVNFMYL [D13K]	2.07
